± gives the standard deviation of the averaged measurements.
Experiment: total protein half-life in vivo (active degradation + dilution); higher = more stable protein
[1] = E. coli NCM3722 delta-clpP delta-lon delta-hslV, growth: N-lim chemostat, doubling time 6 h
[2] = E. coli NCM3722 delta-clpP, growth: N-lim chemostat, doubling time 6 h
[3] = E. coli NCM3722 delta-hslV, growth: N-lim chemostat, doubling time 6 h
[4] = E. coli NCM3722 delta-lon, growth: N-lim chemostat, doubling time 6 h
[5] = E. coli NCM3722 delta-smpB, growth: N-lim chemostat, doubling time 6 h
[6] = wild type E. coli NCM3722, growth: C-lim chemostat, doubling time 3 h
[7] = wild type E. coli NCM3722, growth: C-lim chemostat, doubling time 6 h
[8] = wild type E. coli NCM3722, growth: C-lim chemostat, doubling time 12 h
[9] = wild type E. coli NCM3722, growth: N-lim chemostat, doubling time 6 h
[10] = wild type E. coli NCM3722, growth: N-lim chemostat, doubling time 12 h
[11] = wild type E. coli NCM3722, growth: P-lim chemostat, doubling time 6 h
[12] = wild type E. coli NCM3722, growth: P-lim chemostat, doubling time 12 h

Sequence | total protein half-life in vivo [1] [h] | total protein half-life in vivo [2] [h] | total protein half-life in vivo [3] [h] | total protein half-life in vivo [4] [h] | total protein half-life in vivo [5] [h] | total protein half-life in vivo [6] [h] | total protein half-life in vivo [7] [h] | total protein half-life in vivo [8] [h] | total protein half-life in vivo [9] [h] | total protein half-life in vivo [10] [h] | total protein half-life in vivo [11] [h] | total protein half-life in vivo [12] [h]
MKLLIVEDEKKTGEYLTKGLTEAGFVVDLADNGLNGYHLAMTGDYDLIILDIMLPDVNGWDIVRMLRSANKGMPILLLTALGTIEHRVKGLELGADDYLVKPFAFAELLARVRTLLRRGAAVIIESQFQVADLMVDLVSRKVTRSGTRITLTSKEFTLLEFFLRHQGEVLPRSLIASQVWDMNFDSDTNAIDVAVKRLRGKIDNDFEPKLIQTVRGVGYMLEVPDGQ [P0ACZ8] | 5.08 ± 1 | 4.18 ± 0.13 | 4.01 ± 0.29 | 4.738 ± 0.0044 | 3.77 ± 0.45 | 2.77 ± 0.42 | 5.62 ± 0.89 | 8.61 ± 0.84 | 4.53 ± 0.78 | 7.44 ± 0.99 | 4.5 ± 0.3 | 9.01 ± 0.29
MSESAFKDCFLTDVSADTRLFHFLARDYIVQEGQQPSWLFYLTRGRARLYATLANGRVSLIDFFAAPCFIGEIELIDKDHEPRAVQAIEECWCLALPMKHYRPLLLNDTLFLRKLCVTLSHKNYRNIVSLTQNQSFPLVNRLAAFILLSQEGDLYHEKHTQAAEYLGVSYRHLLYVLAQFIHDGLLIKSKKGYLIKNRKQLSGLALEMDPENKFSGMMQ [P0A9E9] | – | – | – | – | – | 1.56 | – | 2.53 | – | – | – | –
MRKIIHVDMDCFFAAVEMRDNPALRDIPIAIGGSRERRGVISTANYPARKFGVRSAMPTGMALKLCPHLTLLPGRFDAYKEASNHIREIFSRYTSRIEPLSLDEAYLDVTDSVHCHGSATLIAQEIRQTIFNELQLTASAGVAPVKFLAKIASDMNKPNGQFVITPAEVPAFLQTLPLAKIPGVGKVSAAKLEAMGLRTCGDVQKCDLVMLLKRFGKFGRILWERSQGIDERDVNSERLRKSVGVERTMAEDIHHWSECEAIIERLYPELERRLAKVKPDLLIARQGVKLKFDDFQQTTQEHVWPRLNKADLIATARKTWDERRGGRGVRLVGLHVTLLDPQMERQLVLGL | 4.16 ± 0.15 | – | – | – | – | – | – | – | – | – | – | –
MNAIISPDYYYVLTVAGQSNAMAYGEGLPLPDREDAPHPRIKQLARFAHTHPGGPPCHFNDIIPLTHCPHDVQDMQGYHHPLATNHQTQYGTVGQALHIARKLLPFIPDNAGILIVPCCRGGSAFTAGSEGTYSERHGASHDACRWGTDTPLYQDLVSRTRAALAKNPQNKFLGACWMQGEFDLMTSDYASHPQHFNHMVEAFRRDLKQYHSQLNNITDAPWFCGDTTWYWKENFPHSYEAIYGNYQNNVLANIIFVDFQQQGERGLTNAPDEDPDDLSTGYYGSAYRSPENWTTALRSSHFSTAARRGIISDRFVEAILQFWRER | 5.07 ± 0.92 | 3.59 ± 0.15 | 3.413 ± 0.026 | – | 3.46 ± 0.15 | 3.16 | – | 8.77 ± 0.83 | 3.38 | – | 5.15 ± 0.32 | 13.2
MNFLAHLHLAHLAESSLSGNLLADFVRGNPEESFPPDVVAGIHMHRRIDVLTDNLPEVREAREWFRSETRRVAPITLDVMWDHFLSRHWSQLSPDFPLQEFVCYAREQVMTILPDSPPRFINLNNYLWSEQWLVRYRDMDFIQNVLNGMASRRPRLDALRDSWYDLDAHYDALETRFWQFYPRMMAQASRKAL | 5.09 ± 0.57 | 2 ± 0.55 | 2.32 | 3.5 ± 0.25 | 3.83 | 2.18 | 4.23 | 6.12 | 3.3 | 4.2 | 3.04 ± 0.068 | 3.73 ± 1.6
MERFDAIIIGAGAAGMFCSALAGQAGRRVLLIDNGKKPGRKILMSGGGRCNFTNLYVEPGAYLSQNPHFCKSALARFTQWDFIDLVNKHGIAWHEKTLGQLFCDDSAQQIVDMLVDECEKGNVTFRLRSEVLSVAKDETGFTLDLNGMTVGCEKLVIATGGLSMPGLGASPFGYKIAEQFGLNVLPTRAGLVPFTLHKPLLEELQVLAGVAVPSVITAENGTVFRENLLFTHRGLSGPAVLQISSYWQPGEFVSINLLPDVDLETFLNEQRNAHPNQSLKNTLAVHLPKRLVERLQQLGQIPDVSLKQLNVRDQQALISTLTDWRVQPNGTEGYRTAEVTLGGVDTNELSSRTMEARKVPGLYFIGEVMDVTGWLGGYNFQWAWSSAWACAQDLIAAKSS | 5.02 ± 0.28 | 5.67 ± 1.1 | – | 5.81 ± 0.69 | 4.72 ± 0.1 | 3.282 ± 0.019 | 6.42 ± 0.6 | 12.3 ± 1.9 | 5.15 ± 0.21 | 9.59 ± 0.85 | 5.88 ± 0.17 | 10.8 ± 1.7
MRQTKTGILLANLGTPDAPTPEAVKRYLKQFLSDRRVVDTSRLLWWPLLRGVILPLRSPRVAKLYASVWMEGGSPLMVYSRQQQQALAQRLPEMPVALGMSYGSPSLESAVDELLAEHVDHIVVLPLYPQFSCSTVGAVWDELARILARKRSIPGISFIRDYADNHDYINALANSVRASFAKHGEPDLLLLSYHGIPQRYADEGDDYPQRCRTTTRELASALGMAPEKVMMTFQSRFGREPWLMPYTDETLKMLGEKGVGHIQVMCPGFAADCLETLEEIAEQNREVFLGAGGKKYEYIPALNATPEHIEMMANLVAAYR | – | 6.11 ± 0.13 | 6.43 ± 0.78 | 5.98 ± 0.68 | 5.63 ± 0.32 | 2.96 ± 0.033 | 6.24 ± 0.92 | 10.5 ± 2.5 | 5.33 ± 0.98 | 12.1 ± 0.19 | 5.73 ± 0.36 | 12.2 ± 1.5

Reference: the supplement of paper PMC11246515
